According to US20180155451A1 (published 2018):
Positions count from the first letter of the chain named. Names may count otherwise.

T1: FcγRIIb (human, UniProt P31994 43-217)
T1 construct: extracellular domain; for crystallography expressed with Kifunesine and trimmed with Endo F1; also called FcgRIIb; FcgR2b; not shown: His tag attached to the C terminus
T1 sequence (looked up): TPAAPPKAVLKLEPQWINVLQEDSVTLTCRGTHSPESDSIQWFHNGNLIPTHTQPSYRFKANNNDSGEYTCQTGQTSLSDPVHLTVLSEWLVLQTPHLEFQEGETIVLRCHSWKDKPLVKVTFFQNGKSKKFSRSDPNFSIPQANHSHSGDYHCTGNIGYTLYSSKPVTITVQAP

B1: GpH7-A26/GpH7-B3/GpL16-k0 (antibody, human IgG1, kappa)
heavy 1: QVQLVQSGAEVKKPGASVTVSCKASGYTFTDYEMHWIRQPPGEGLEWIGAIDPKTGDTAYSESFQDRVTLTADKSTSTAYMELSSLTSEDTAVYYCTRFYSYTYWGQGTLVTVSSASTKGPSVFPLAPSSKSTSGGTAALGCLVKDYFPEPVTVSWNSGALTSGVHTFPAVLQSSGLYSLSSVVTVPSSSLGTQTYICNVNHKPSNTKVDKKVEPKSCDKTHTCPPCPAPELLGAPSVFLFPPKPKDTLMISRTPEVTCVVVDVSHEDPEVKFNWYVDGVEVHNAKTKPREEQYNSTYRVVSVLTVLHQDWLNGKEYKCKVSNKALPAPIEKTISKAKGQPREPQVYTLPPSRKELTKNQVSLTCLVKGFYPSDIAVEWESNGQPENNYKTTPPVLDSDGSFFLYSKLTVDKSRWQQGNVFSCSVMHEALHNRYTQKSLSLSP
heavy 2: not shown
light: DIVMTQSPLSLPVTPGEPASISCQASESLVHSNRNTYLHWYLQKPGQSPQLLIYKVSNRFSGVPDRFSGSGSGTDFTLKISRVEAEDVGVYYCSQNTHVPPTFGQGTKVEIERTVAAPSVFIFPPSDEQLKSGTASVVCLLNNFYPREAKVQWKVDNALQSGNSQESVTEQDSKDSTYSLSSTLTLSKADYEKHKVYACEVTHQGLSSPVTKSFNRGEC
notes: G237A in one H chain
B2: GpH7-A5/GpH7-B3/GpL16-k0 (antibody, human IgG1, kappa)
heavy 1: not shown
heavy 2: not shown
light: B1 light
notes: also called HeCon Ab; control heterodimerized antibody
B3: GpH7-A26/GpL16-k0 (antibody, human IgG1, kappa)
heavy: B1 heavy 1
light: B1 light
notes: G237A in both H chains
B4: GpH7-A43/GpH7-B3/GpL16-k0 (antibody, human IgG1, kappa)
heavy 1: B1 heavy 1 with A235G, L326D
heavy 2: not shown
light: B1 light
notes: L328D in one H chain
B5: GpH7-A29/GpH7-B3/GpL16-k0 (antibody, human IgG1, kappa)
heavy 1: B1 heavy 1 with A235L
heavy 2: not shown
light: B1 light
notes: G237L in one H chain
B6: GpH7-A5/GpH7-B80/GpL16-k0 (antibody, human IgG1, kappa)
heavy 1: not shown
heavy 2: not shown
light: B1 light
notes: Heterodimerized anti-glypican-3 IgG1
B7: GpH7-A29/GpL16-k0 (antibody, human IgG1, kappa)
heavy: B1 heavy 1 with A235L
light: B1 light
notes: G237L in both H chains
B8: GpH7-A42/GpH7-B3/GpL16-k0 (antibody, human IgG1, kappa)
heavy 1: B1 heavy 1 with A235G, L326E
heavy 2: not shown
light: B1 light
notes: L328E in one H chain
B9: GpH7-A44/GpH7-B3/GpL16-k0 (antibody, human IgG1, kappa)
heavy 1: B1 heavy 1 with A235G, I330E
heavy 2: not shown
light: B1 light
notes: Heterodimerized anti-glypican-3 IgG1; I332E only in the GpH7-A5-derived chain (A44)
B10: GpH7-A43/GpL16-k0 (antibody, human IgG1, kappa)
heavy: B1 heavy 1 with A235G, L326D
light: B1 light
notes: L328D in both H chains
B11: GpH7-A42/GpL16-k0 (antibody, human IgG1, kappa)
heavy: B1 heavy 1 with A235G, L326E
light: B1 light
notes: L328E in both H chains
B12: GpH7-A44/GpH7-B80/GpL16-k0 (antibody, human IgG1, kappa)
heavy 1: B1 heavy 1 with A235G, I330E
heavy 2: not shown
light: B1 light
notes: Anti-glypican-3 IgG1 with I332E in both H chains

How the values were obtained:
[1] = target: T1, FcγRIIb; assay: SPR (Biacore), relative binding
Text: The constructed expression vectors were each combined with GpH7-A5 and GpL16-k0 to express heterodimerized antibodies, or they were combined with GpL16-k0 alone but not with other H chains to express homodimerized antibodies. These antibodies were expressed and purified according to the method described in Reference Example 1. The resulting purified antibodies are the following: the heterodimerized antibodies GpH7-A5/GpH7-B12/GpL16-k0, GpH7-A5/GpH7-B13/GpL16-k0, GpH7-A5/GpH7-B14/GpL16-k0, and GpH7-A5/GpH7-B15/GpL16-k0; and homodimerized antibodies GpH7-B12/GpL16-k0, GpH7-B13/GpL16-k0, GpH7-B14/GpL16-k0, and GpH7-B15/GpL16-k0. The prepared antibodies were used to assess the binding activity to each FcγR by the method described in Reference Example 2.
(§1) Analysis of interaction between objective antibody and the FcγR was carried out using Biacore T100 (GE Healthcare). HBS-EP+ (GE Healthcare) was used as the running buffer, and the measurement temperature was set to 25° C. Chips produced by immobilizing the antigen peptide by the amine coupling method to a Series S Sencor Chip CM5 (GE Healthcare), or alternatively, chips produced by allowing preliminarily biotinylated antigen peptides to interact with and immobilize onto a Series S Sensor Chip SA (certified) (GE Healthcare) were used. Antibodies of interest were captured onto an antigen peptide-immobilized chip, and allowed to interact to each FcγR diluted with running buffer. To regenerate and repeatedly use the chip, the antibodies captured on the chip were washed off by reacting 10 mM glycine-HCl, pH 1.5.

[2] = target: T2, FcγRIIIa extracellular domain with C-terminal His tag (human, UniProt P08637 17-208); assay: SPR (Biacore), kinetic analysis, antibody captured, FcγRIIIa as analyte
T2 construct: extracellular domain; also called FcgRIIIa; 3a; not shown: His tag at the C terminus
Text: Then, the present inventors introduced I332E into only one H chain, and assessed whether the Tm is elevated as compared to when I332E is introduced into both H chains. Expression vectors inserted with GpH7-A44 (SEQ ID NO: 49) and GpH7-B80 (SEQ ID NO: 50) resulting from the introduction of I332E into GpH7-A5 and GpH7-B3, respectively, were constructed. They were combined with GpH7-B3, GpH7-A5, and GpL16-k0 to express and prepare the following antibodies according to the method described in Reference Example 1: the heterodimerized antibodies GpH7-A5/GpH7-B80/GpL16-k0 and GpH7-A44/GpH7-B3/GpL16-k0 in which only one of the H chains was introduced with I332E, and the homodimerized antibody GpH7-A44/GpH7-B80/GpL16-k0 in which both of the H chains were introduced with I332E. GpH7-A5/GpH7-B3/GpL16-k0 was prepared as a control. Each antibody was assessed for the FcγRIIIa-binding activity according to the method described in Reference Example 2. In addition, the antibodies were compared for the Tm of CH2 domain by thermal shift assay according to the method described in Reference Example 5 (Tables 28 and 29).
as §1
The FcγR-binding activity of each antibody was assessed primarily using as an indicator the FcγR-binding activity and dissociation constant for FcγR.

T2 sequence (P08637 17-208): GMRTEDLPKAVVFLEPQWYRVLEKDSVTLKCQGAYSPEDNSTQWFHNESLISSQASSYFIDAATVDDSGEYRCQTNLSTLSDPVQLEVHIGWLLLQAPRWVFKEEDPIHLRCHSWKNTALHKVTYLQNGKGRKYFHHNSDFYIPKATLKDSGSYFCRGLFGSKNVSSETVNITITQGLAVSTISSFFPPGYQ

| Binder | binding result [1] | KD ratio [2] | Kd [2] [nM] |
| --- | --- | --- | --- |
| B1 | binds |  |  |
| B2 |  | 1 fold (KD of GpH7-A5/GpH7-B3/GpL16-k0 divided by KD of the antibody) | 1600 |
| B3 | binds |  |  |
| B4 | binds |  |  |
| B5 | binds |  |  |
| B6 |  | 3.4 fold (KD of GpH7-A5/GpH7-B3/GpL16-k0 divided by KD of the antibody) | 470 |
| B7 | binds |  |  |
| B8 | binds |  |  |
| B9 |  | 4.4 fold (KD of GpH7-A5/GpH7-B3/GpL16-k0 divided by KD of the antibody) | 370 |
| B10 | binds |  |  |
| B11 | binds |  |  |
| B12 |  | 7.1 fold (KD of GpH7-A5/GpH7-B3/GpL16-k0 divided by KD of the antibody) | 230 |
